{"source": "patent US20090258363", "about": "“Targeted integration and expression of exogenous nucleic acid sequences” (Sangamo BioSciences, Inc., published 2009)", "binders": {"B1": {"name": "sca-36c site (dsDNA)", "DNA 1": "GAAGTCTGCCGTT", "DNA 2": "AACGGCAGACTTC"}, "B2": {"name": "sca-r29b site (dsDNA)", "DNA 1": "ACGTAGACTGAGG", "DNA 2": "CCTCAGTCTACGT"}, "B3": {"name": "sca-36b site (dsDNA)", "DNA 1": "GAAGTCTGCCGTT", "DNA 2": "AACGGCAGACTTC"}, "B4": {"name": "sca-36a site (dsDNA)", "DNA 1": "GAAGTCTGCCGT", "DNA 2": "ACGGCAGACTTC"}}, "test_in_all_cases": "ZFP domain; assay not described", "details_in_all_cases": "tags: FokI C-terminal, 4-aa linker", "key": {"[1]": {"biological_target": "sca-36c ZFP-FokI (synthetic)", "sequence (chain, as listed by the source)": "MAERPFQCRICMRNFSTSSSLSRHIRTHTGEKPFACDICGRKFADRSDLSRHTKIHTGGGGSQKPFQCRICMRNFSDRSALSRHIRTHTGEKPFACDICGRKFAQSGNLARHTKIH"}, "[2]": {"biological_target": "sca-r29b ZFP-FokI (synthetic)", "sequence (chain, as listed by the source)": "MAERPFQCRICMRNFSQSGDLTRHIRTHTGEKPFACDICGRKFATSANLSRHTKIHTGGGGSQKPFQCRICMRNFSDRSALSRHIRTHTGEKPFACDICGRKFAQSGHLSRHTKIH"}, "[3]": {"biological_target": "sca-36b ZFP-FokI (synthetic)", "sequence (chain, as listed by the source)": "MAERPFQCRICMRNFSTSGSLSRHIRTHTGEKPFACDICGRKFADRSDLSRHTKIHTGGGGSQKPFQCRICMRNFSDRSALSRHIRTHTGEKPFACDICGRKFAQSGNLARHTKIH"}, "[4]": {"biological_target": "sca-36a ZFP-FokI (synthetic)", "sequence (chain, as listed by the source)": "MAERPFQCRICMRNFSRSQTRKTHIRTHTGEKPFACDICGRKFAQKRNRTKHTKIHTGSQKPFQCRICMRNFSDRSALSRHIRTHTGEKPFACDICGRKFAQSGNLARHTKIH"}}}
{"binder": "B1", "values": [{"measurement": "binding result", "setting": "[1]", "value": "binds"}]}
{"binder": "B2", "values": [{"measurement": "binding result", "setting": "[2]", "value": "binds"}]}
{"binder": "B3", "values": [{"measurement": "binding result", "setting": "[3]", "value": "binds"}]}
{"binder": "B4", "values": [{"measurement": "binding result", "setting": "[4]", "value": "binds"}]}
